Results reported in patent US20200399382A1 (ARGENX, published 2020).
Residue numbers refer to the chain shown, from its start.

T1: human IL-4Rα (SPR target) (human, UniProt P24394 26-232, limits assumed)
T1 construct: also called recombinant human IL-4Rα-Fc
T1 sequence (looked up): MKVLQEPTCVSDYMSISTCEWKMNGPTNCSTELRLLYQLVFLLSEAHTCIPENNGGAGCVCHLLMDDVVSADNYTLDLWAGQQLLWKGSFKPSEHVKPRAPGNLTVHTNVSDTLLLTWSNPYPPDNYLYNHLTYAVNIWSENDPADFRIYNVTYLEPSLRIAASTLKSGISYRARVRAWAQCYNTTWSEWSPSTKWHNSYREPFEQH

T2: human IL-4Rα on the cells of the hIL-4 proliferation assay (human, UniProt P24394 26-825)
T2 sequence (looked up): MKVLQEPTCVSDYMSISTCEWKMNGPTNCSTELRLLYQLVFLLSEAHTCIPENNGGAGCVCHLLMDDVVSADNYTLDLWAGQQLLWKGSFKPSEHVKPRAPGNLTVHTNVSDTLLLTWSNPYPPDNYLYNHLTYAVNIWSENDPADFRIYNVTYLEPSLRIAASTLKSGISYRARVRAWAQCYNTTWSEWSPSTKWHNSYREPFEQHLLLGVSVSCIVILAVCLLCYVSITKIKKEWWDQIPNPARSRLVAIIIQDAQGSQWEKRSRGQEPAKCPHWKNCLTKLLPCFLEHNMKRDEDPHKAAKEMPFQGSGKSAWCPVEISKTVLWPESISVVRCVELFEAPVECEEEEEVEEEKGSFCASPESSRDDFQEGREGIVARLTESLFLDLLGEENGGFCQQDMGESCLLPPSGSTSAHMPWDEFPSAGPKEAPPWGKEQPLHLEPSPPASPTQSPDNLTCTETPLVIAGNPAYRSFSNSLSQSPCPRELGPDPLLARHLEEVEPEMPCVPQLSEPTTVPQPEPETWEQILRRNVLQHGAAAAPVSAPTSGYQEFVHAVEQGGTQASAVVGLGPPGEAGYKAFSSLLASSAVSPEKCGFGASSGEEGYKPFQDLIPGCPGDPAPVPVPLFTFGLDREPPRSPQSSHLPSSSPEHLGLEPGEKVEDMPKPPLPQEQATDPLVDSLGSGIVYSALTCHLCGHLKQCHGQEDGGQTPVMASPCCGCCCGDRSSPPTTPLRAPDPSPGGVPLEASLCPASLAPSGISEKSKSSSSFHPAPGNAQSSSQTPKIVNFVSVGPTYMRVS

T3: mouse IL-5 (mouse, UniProt P04401 21-133)
T3 sequence (looked up): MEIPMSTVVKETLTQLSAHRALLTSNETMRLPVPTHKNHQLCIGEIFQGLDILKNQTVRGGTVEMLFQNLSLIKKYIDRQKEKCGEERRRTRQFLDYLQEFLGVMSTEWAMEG

T4: cynomolgus recombinant IL-4Rα (cynomolgus (table head: cyno/rhesus), UniProt A0A2K5V556 26-232)
T4 construct: Bought reagent; also called cyno/rhesus IL-4Rα; cyno IL-4Rα
T4 sequence: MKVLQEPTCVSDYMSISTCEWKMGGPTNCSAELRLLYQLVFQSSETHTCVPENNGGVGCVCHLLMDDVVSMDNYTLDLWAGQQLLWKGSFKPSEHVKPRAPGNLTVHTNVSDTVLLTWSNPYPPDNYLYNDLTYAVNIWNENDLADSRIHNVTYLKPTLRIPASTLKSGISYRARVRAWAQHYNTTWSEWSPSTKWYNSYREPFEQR

T5: human IL-5 (human, UniProt P05113 20-134)
T5 sequence (looked up): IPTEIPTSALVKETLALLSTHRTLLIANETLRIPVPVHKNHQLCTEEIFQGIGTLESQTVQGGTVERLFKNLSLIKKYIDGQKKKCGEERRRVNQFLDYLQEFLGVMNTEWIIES

B1: h4R5D1 human IL-4Rα mAb (antibody, V domains shown)
VH: QLQLVESGGGLVQPGGSLRLSCAASGFTFSSYIMSWVRQAPGKGLEWVSGISSGGGITAYADSVKGRFTISRDNAKNTLYLQMNSLKPDDTAVYYCVAGLLRVEGYWGQGTQVTVSS
VL: QTVVTQEPSLSVSPGGTVTLTCGLSSGSVTSSNYPGWYQQTPGQAPRSLIYATASRHSGVPSRYSGSISGNKATLTITGAEPEDEADYYCALHKGTYVFGGGTKLTVL
notes: also called h4RMP5D1; 4RMP5D1
B2: 95G7hIgG1 (IL-5 antibody 5MP95G7 as human IgG1) (antibody, V domains shown)
VH: ELQVVESGGGLVQPGGSLRLSCAASGFTFSSYGMSWVRQAPGKGLEWVSTISRGGDSTSYADSVKGRFTISKDNAKNTLYLQMNSLEPEDTAVYYCANLGRLGFGRGQGTQVTVSS
VL: SYELTQPPSVSGSPGKTLTISCAGTSSDIGDWNYVSWFQQLPGTAPKLLISEVNKRASGIPDRFSGSKSGNTASLSISGLQSEDEADYYCTSYRSGNNWVFGGGTHLTVL
B3: h4R3D6 human IL-4Rα mAb (antibody, V domains shown)
VH: QVQLQESGGGLVQPGGSLRLSCAASGFTFSSYSLTWVRQAPGKGLEWVSTIKARGGTTLYADSVKDRFTISRDNAKNTLYLLMNSLKPEDTAVYYCAKPLYNNFAGDFGSWGQGTTVTVSS
VL: DIQMTQSPSSLSASLGDRVTITCQASQSISSYLAWYQQKPGQAPKLLIYGGSRLQTGVPSRFSGSGSGTSFTLTISGLETEDLATYYCLQDYSWPLTFGQGTKVELK
notes: also called 4RMP3D6
B4: 3D6wt Fab (parental 4RMP3D6 as Fab) (Fab, V domains shown)
VH: B3 VH
VL: B3 VL
notes: also called h4R3D6
B5: 152A07 Fab (variant of 4RMP3D6) (Fab, V domains shown)
VH: B3 VH with N102S, F104L, F108L
VL: B3 VL with V104L, L106I
notes: also called VH152A07
B6: 153E11 Fab (variant of 4RMP3D6) (Fab, V domains shown)
VH: B3 VH with D107H
VL: B3 VL with L89Q, V104L, L106I
notes: Fab from periplasmic extract, with CH1 and CK constant domains; also called VH153E11
B7: 150A09 Fab (variant of 4RMP3D6) (Fab, V domains shown)
VH: B3 VH with A97V, N102S
VL: B3 VL with K45R, L89Q, V104L, L106I
notes: Fab from periplasmic extract, with CH1 and CK constant domains; also called VH150A09
B8: 152B10 Fab (variant of 4RMP3D6) (Fab, V domains shown)
VH: B3 VH with M83V, F104L
VL: B3 VL with T56A, S76G, L89Q, V104L, L106I
notes: Fab from periplasmic extract, with CH1 and CK constant domains; also called VH152B10
B9: 153A11 Fab (variant of 4RMP3D6) (Fab, V domains shown)
VH: B3 VH with L82Q, N102S, F104L
VL: B3 VL with P40S, D91V, V104L, L106I
notes: Fab from periplasmic extract, with CH1 and CK constant domains; also called VH153A11
B10: h4R3B2 human IL-4Rα mAb (antibody, V domains shown)
VH: QLQLVESGGGLVQPGGSLRLSCAASGFTFSSYDMTWVRQAPGKGLEWVSAINSGGGSTNYADSVKGRVTISRDNAKNTLYLQMNSLKPEDTAVYFCARALRTVVHDRRLFYIDSWGQGTQVTVSS
VL: SYELTQSPSVSVALRQTAKITCGGNNIGSKSAQWYQQKPGQAPVLVIYADSRRPSGIPERFSGSNSGNTATLTVSGAQAEDEADYYCQVWDTSAVVFGGGTRLTVL
notes: also called h4RMP3B2; 4RMP3B2
B11: h5MP90E7 human IL-5 mAb (antibody, V domains shown)
VH: EVQLVESGGGLVQPGGSLRLSCAASGFAFSSSFMSWVRQAPGKGLEWVSTINGNGGTYYADSMKGRFTISRDNVKSTVTLQMNSLKPEDTAVYYCAADWISGGYYFPALGYWGQGTQVTVSS
VL: SYELTQSPSVSVALRQTAKITCGGNNIGSKSAQWYQQKPGQAPVLVIYADSRRPSGIPERFSGSNSGNTATLTISGAQAEDEADYYCQVWDVSTNAAVFGGGTHLSVL
B12: h5MP90C8 human IL-5 mAb (antibody, V domains shown)
VH: B11 VH
VL: B11 VL with N25D, K38S, S51A, R52S, Q78R, V92T, S106T
B13: h5MP26H7 human IL-5 mAb (antibody, V domains shown)
VH: B11 VH
VL: SYELTQSPSVSVAQTQTAKITCGGDNIGSKSVQWYQQKPGQAPVLAIYADTRRPSGIPERFSGSNSGNTATLTITGAQAEDEADYYCQVWDTSTNVAVFGGGTRLTIL
B14: h5MP90G7 human IL-5 mAb (antibody, V domains shown)
VH: B11 VH
VL: B11 VL with S29R, V92S, T94A, S106T
B15: h5MP90A9 human IL-5 mAb (antibody, V domains shown)
VH: B11 VH
VL: B11 VL with V10L, I20M, N26K, S62A, S66A, V92I, T94A, S106T
B16: h5MP90D9 human IL-5 mAb (antibody, V domains shown)
VH: B11 VH
VL: B11 VL with K30L, A32T, S51N, P58H, S75G, V92N, T94A, A97L, S106T

What was measured:
[1] = target: T1, human IL-4Rα (SPR target); assay: SPR as described in Example 2
[2] = target: T2, human IL-4Rα on the cells of the hIL-4 …; assay: cell-based or functional assay
mouse IL-5 = target: T3, mouse IL-5; assay: cell-based or functional assay
[3] = target: T4, cynomolgus recombinant IL-4Rα; assay: SPR (Biacore 3000), periplasmic Fab over CM5 chip coated with cyno IL-4Rα
Source text: (§1) After 3 rounds of selection, clones were selected (from round 2 and 3), and Fab was produced from the periplasmic extracts and tested by SPR.

[4] = target: T1, human IL-4Rα (SPR target); assay: SPR (Biacore 3000), periplasmic Fab over CM5 chip coated with human IL-4Rα
Source text: as §1

human IL-5 [5] = target: T5, human IL-5; assay: cell-based or functional assay
human IL-5 [6] = target: T5, human IL-5; assay: SPR as described in Example 2

Binder | R0 (binding) [3] | koff [3] | R0 (binding) [4] | koff [4] | IC50 (pM), proliferation assay with hIL-5 (0.25 ng/mL) (human IL-5 [5]) | Kd (human IL-5 [6]) | also measured
B1 | – | – | – | – | – | – | Kd [1]: 44.2 pM; IC50 (nM), proliferation assay with hIL-4 (1.5 ng/mL) [2]: 0.2 nM
B2 | – | – | – | – | – | – | EC50 (nM), inhibition of mIL-5-induced (0.25 ng/mL) proliferation of TF-1 cells (mouse IL-5): 1.86 nM
B3 | – | – | – | – | – | – | Kd [1]: 55.1 pM; IC50 (nM), proliferation assay with hIL-4 (1.5 ng/mL) [2]: 0.6 nM
B4 | 26 | 0.0017 s⁻¹ | 204 | 0.00053 s⁻¹ | – | – | –
B5 | 94 | 0.0017 s⁻¹ | 58 | 0.00069 s⁻¹ | – | – | –
B6 | 78 | 0.0014 s⁻¹ | 56 | 0.00043 s⁻¹ | – | – | –
B7 | 80 | 0.002 s⁻¹ | 53 | 0.00084 s⁻¹ | – | – | –
B8 | 170 | 0.0026 s⁻¹ | 110 | 0.0012 s⁻¹ | – | – | –
B9 | 146 | 0.00033 s⁻¹ | 68 | 0.002 s⁻¹ | – | – | –
B10 | – | – | – | – | – | – | Kd [1]: 81.8 pM; IC50 (nM), proliferation assay with hIL-4 (1.5 ng/mL) [2]: 0.4 nM
B11 | – | – | – | – | 8.84 pM | 129 pM | –
B12 | – | – | – | – | 6.93 pM | 133 pM | –
B13 | – | – | – | – | 37.5 pM | 74.9 pM | –
B14 | – | – | – | – | 1.61 pM | 113 pM | –
B15 | – | – | – | – | 4.99 pM | 83.5 pM | –
B16 | – | – | – | – | 6.84 pM | 26.4 pM | –
